Assay results: PMC10164551, “Structural basis of tRNAPro acceptor stem recognition by a bacterial trans-editing domain”

Assays:
ProXp-ala WT [1] = target: T1, ProXp-ala WT (Caulobacter crescentus, UniProt Q9ABV9 1-168); test: EMSA; apparent, Hill fit; EMSA: 81 nM duplex annealed in 50 mM sodium phosphate pH 7.5, 150 mM NaCl, 0-114 μM protein, 1 h room temp, 16% native gel in TBE; NMR: same phosphate buffer, 1; details: protein: recombinant, tags: N-terminal His6 removed by thrombin, leaves Gly-Ser-His, label: 3' 6FAM on strand 1
T1 sequence: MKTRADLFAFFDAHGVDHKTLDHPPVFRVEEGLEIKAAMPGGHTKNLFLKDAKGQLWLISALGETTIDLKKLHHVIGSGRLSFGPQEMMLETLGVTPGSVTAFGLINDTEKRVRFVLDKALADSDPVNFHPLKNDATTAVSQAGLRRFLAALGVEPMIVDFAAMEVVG

ProXp-ala WT [2] = target: T1, ProXp-ala WT; test: NMR; 100 μM each; EMSA: 81 nM duplex annealed in 50 mM sodium phosphate pH 7.5, 150 mM NaCl, 0-114 μM protein, 1 h room temp, 16% native gel in TBE; NMR: same phosphate buffer, 1; details: protein: recombinant; tags: N-terminal His6 removed by thrombin; leaves Gly-Ser-His; hairpin; 7 bp stem, 3' ACCA single-stranded
ProXp-ala WT [3] = target: T1, ProXp-ala WT; test: NMR; 100 μM each; indistinguishable from microhelixPro; EMSA: 81 nM duplex annealed in 50 mM sodium phosphate pH 7.5, 150 mM NaCl, 0-114 μM protein, 1 h room temp, 16% native gel in TBE; NMR: same phosphate buffer, 1; details: protein: recombinant; tags: N-terminal His6 removed by thrombin; leaves Gly-Ser-His; hairpin; 12 bp stem, 3' ACCA single-stranded

B1: duplexPro A76G (dsRNA)
RNA 1: CGGCGAGGGAGGUU
RNA 2: AUCCUCUCUCGCCGACCG
ProXp-ala WT [1]; 3' overhang 4 nt on strand 2
  Kd: 66 ± 11 µM

B2: duplexPro A76C (dsRNA)
RNA 1: CGGCGAGGGAGGUU
RNA 2: AUCCUCUCUCGCCGACCC
ProXp-ala WT [1]; 3' overhang 4 nt on strand 2
  Kd: 87 ± 4 µM

B3: duplexPro A76U (dsRNA)
RNA 1: CGGCGAGGGAGGUU
RNA 2: AUCCUCUCUCGCCGACCU
ProXp-ala WT [1]; 3' overhang 4 nt on strand 2
  Kd: 106 ± 16 µM

B4: duplexPro dA76 (dsRNA)
RNA 1: CGGCGAGGGAGGUU
RNA 2: AUCCUCUCUCGCCGACCA
modifications: 2'-deoxy-A at 3' terminus of strand 2
ProXp-ala WT [1]; 3' overhang 4 nt on strand 2
  Kd: 34 ± 5 µM

## CGGCGAGUUCGCUCGCCGACCA (structured_RNA) [microhelixPro]
ProXp-ala WT [2]
  binding result: binds

B5: duplexPro A76 (WT) (dsRNA)
RNA 1: CGGCGAGGGAGGUU
RNA 2: AUCCUCUCUCGCCGACCA
ProXp-ala WT [1]; 3' overhang 4 nt (ACCA) on strand 2
  Kd: 33 ± 11 µM

B6: duplexPro ΔA76 (dsRNA)
RNA 1: CGGCGAGGGAGGUU
RNA 2: AUCCUCUCUCGCCGACC
ProXp-ala WT [1]; 3' overhang 3 nt on strand 2
  Kd: 75 ± 12 µM

B7: duplexPro 3'pΔA76 (dsRNA)
RNA 1: CGGCGAGGGAGGUU
RNA 2: AUCCUCUCUCGCCGACC
modifications: 3' phosphate on terminal C of strand 2
ProXp-ala WT [1]; 3' overhang 3 nt on strand 2
  Kd: 63 ± 11 µM

## CGGCGAGGGAGGUUCGAAUCCUCUCUCGCCGACCA (structured_RNA) [minihelixPro]
ProXp-ala WT [3]
  binding result: binds
